The values that follow come from US20220288223.

The target in series [1] is RACPP with substrate SYPYKY.
The target in series [2] is RACPP with substrate PLGC(me)AG.
Series [3] addresses RACPP with substrate TIAHLA.
Series [4] addresses RACPP with substrate TLSLEH.
Series [5] addresses RACPP with substrate PLGLEEA.
Series [6] concerns the target RACPP with substrate TGRAAA.
Series [7] deals with RACPP with substrate KLRFSQK.
Series [8] deals with RACPP with substrate Nle-TPRSFL.
Series [9] concerns the target RACPP with substrate YGRAAA.
The target in series [10] is RACPP with substrate GVAYSGA.
Series [11] has as its target RACPP with substrate RLQLK(Ac)L.

B1: MMP-12 (protein)
chain: GPVWRKHYITYRINNYTPDMNREDVDYAIRKAFQVWSNVTPLKFSKINTGMADILVVFARGAHGDFHAFDGKGGILAHAFGPGSGIGGDAHFDEDEFWTTHSGGTNLFLTAVHEIGHSLGLGHSSDPKAVMFPTYKYVDINTFRLSADDIRGIQSLYGDPKENQRLPNPDNSEPALCDPNLSFDAVTTVGNKIFFFKDRFFWLKVSERPKTSVNLISSLWPTLPSGIEAAYEIEARNQVFLFKDDKYWLISNLRPEPNYPKSIHSFGFPNFVKKIDAAVFNPRFYRTYFFVDNQYWRYDERRQMMDPGYPKLITKNFQGIGPKIDAVFYSKNKYYYFFQGSNQFEYDFLLQRITKTLKSNSWFGC
With B1, the Kcat/Km is 14000 in series [1]; 9170 in series [2]; 2320 in series [3]; 1400 in series [4]; 10500 in series [5].

B2: Plasmin (protein)
chain: KVYLSECKTGNGKNYRGTMSKTKNGITCQKWSSTSPHRPRFSPATHPSEGLEENYCRNPDNDPQGPWCYTTDPEKRYDYCDILECEEECMHCSGENYDGKISKTMSGLECQAWDSQSPHAHGYIPSKFPNKNLKKNYCRNPDRELRPWCFTTDPNKRWELCDIPRCTTPPPSSGPTYQCLKGTGENYRGNVAVTVSGHTCQHWSAQTPHTHNRTPENFPCKNLDENYCRNPDGKRAPWCHTTNSQVRWEYCKIPSCDSSPVSTEQLAPTAPPELTPVVQDCYHGDGQSYRGTSSTTTTGKKCQSWSSMTPHRHQKTPENYPNAGLTMNYCRNPDADKGPWCFTTDPSVRWEYCNLKKCSGTEASVVAPPPVVLLPDVETPSEEDCMFGNGKGYRGKRATTVTGTPCQDWAAQEPHRHSIFTPETNPRAGLEKNYCRNPDGDVGGPWCYTTNPRKLYDYCDVPQCAAPSFDCGKPQVEPKKCPGRVVGGCVAHPHSWPWQVSLRTRFGMHFCGGTLISPEWVLTAAHCLEKSPRPSSYKVILGAHQEVNLEPHVQEIEVSRLFLEPTRKDIALLKLSSPAVITDKVIPACLPSPNYVVADRTECFITGWGETQGTFGAGLLKEAQLPVIENKVCNRYEFLNGRVQSTELCAGHLAGGTDSCQGDSGGPLVCFEKDKYILQGVTSWGLGCARPNKPGVYVRVSRFVTWIEGVMRNN
On to B2, for which the Kcat/Km stood at 19400 in [1]; 4160 in series [6]; 6510 in [7]; 13000 in series [8]; 7720 in [9].

B3: MMP-2 (protein)
chain: YNFFPRKPKWDKNQITYRIIGYTPDLDPETVDDAFARAFQVWSDVTPLRFSRIHDGEADIMINFGRWEHGDGYPFDGKDGLLAHAFAPGTGVGGDSHFDDDELWTLGEGQVVRVKYGNADGEYCKFPFLFNGKEYNSCTDTGRSDGFLWCSTTYNFEKDGKYGFCPHEALFTMGGNAEGQPCKFPFRFQGTSYDSCTTEGRTDGYRWCGTTEDYDRDKKYGFCPETAMSTVGGNSEGAPCVFPFTFLGNKYESCTSAGRSDGKMWCATTANYDDDRKWGFCPDQGYSLFLVAAHEFGHAMGLEHSQDPGALMAPIYTYTKNFRLSQDDIKGIQELYGASPDIDLGTGPTPTLGPVTPEICKQDIVFDGIAQIRGEIFFFKDRFIWRTVTPRDKPMGPLLVATFWPELPEKIDAVYEAPQEEKAVFFAGNEYWIYSASTLERGYPKPLTSLGLPPDVQRVDAAFNWSKNKKTYIFAGDKFWRYNEVKKKMDPGFPKLIADAWNAIPDNLDAVVDLQGGGHSYFFKGAYYLKLENQSLKSVKFGSIKSDWLGC
Consider B3, for which the Kcat/Km in [2] is 36400; in series [3], 16200; in series [4], 11400; in series [9] it was 426; in series [5] it was 2420.

B4: Chymase (protein)
chain: IIGGTECKPHSRPYMAYLEIVTSNGPSKFCGGFLIRRNFVLTAAHCAGRSITVTLGAHNITEEEDTWQKLEVIKQFRHPKYNTSTLHHDIMLLKLKEKASLTLAVGTLPFPSQFNFVPPGRMCRVAGWGRTGVLKPGSDTLQEVKLRLMDPQACSHFRDFDHNLQLCVGNPRKTKSAFKGDSGGPLLCAGVAQGIVSYGRSDAKPPAVFTRISHYRPWINQILQAN
With B4, the Kcat/Km in series [1] amounted to 16400; in series [3], 11500; in series [7], 1970; in series [4] it was 2270; in series [10], 48100.

B5: CathepsinK (protein)
chain: APDSVDYRKKGYVTPVKNQGQCGSCWAFSSVGALEGQLKKKTGKLLNLSPQNLVDCVSENDGCGGGYMTNAFQYVQKNRGIDSEDAYPYVGQEESCMYNPTGKAAKCRGYREIPEGNEKALKRAVARVGPVSVAIDASLTSFQFYSKGVYYDESCNSDNLNHAVLAVGYGIQKGNKHWIIKNSWGENWGNKGYILMARNKNNACGIANLASFPKM
Turning to B5, the Kcat/Km in series [2] amounted to 2640; in [3], 833; in series [7], 7440; in series [4], 497; in [8], 2350; in series [5], 787. Moreover, the Kcat/Km was determined as 2870 in series [11] and 1070 in series [10].
